Assay results: patent US20260069689A1 (Regeneron, published 2026)

Tests used:
[1] = target: SARS-COV-2 RBD extracellular domain expressed with a C-terminal myc-myc-hexahistidine tag (SARS-COV-2 RBD-mmH) (SARS-CoV-2); experiment: SPR Biacore, mAb captured on anti-hFc, RBD-mmH analyte, 37 C
[2] = target: SARS-COV-2 RBD extracellular domain expressed with a C-terminal myc-myc-hexahistidine tag (SARS-CoV-2); experiment: SPR (Biacore), mAb captured by anti-human Fc, RBD-mmH in solution, 25 C

Binder | Kd [1] [nM] | koff [1] [s⁻¹] | kon [1] [M⁻¹ s⁻¹] | t½ [1] [min] | Kd [2] [nM] | koff [2] [s⁻¹] | kon [2] [M⁻¹ s⁻¹] | t½ [2] [min]
mAb14232 (antibody, V domains shown) VH: QITLKESGPTLVKPTQTLTLTCTFSGFSLSASGVGVGWIRQPPGKALEWLALIYWDDDKRYSPSLKSRLTITKDTSKNQVVLTMTNMDPVDTATYYCAQHKVATIFDYWGQGTLVTVSS VL: QSALTQPPSASGSPGQSVTISCTATSSDVGNYNYVSWYQQHPGKAPKLMIYEVTKRPSGVPDRFSGSKSGNTASLTVSGLQAEDEADYYCSSYAGSWGVFGGGTKLTVLG | 7.92 | 0.0372 | 4.69e+06 | 0.3 |  |  |  | 
mAb15163 (antibody, V domains shown) VH: EVQLVETGGGLIQPGESLRLSCAASGFIVSTNYMNWVRQAPGKGLEWVSVIYRGGSTYYADSVKGRFTISRDNSKNTLFLQMNSLRAEDTAVYYCARGHEDFDYDTPASGAFDIWGQGTMVTVSS VL: QSALTQPPSASGSPGQSVTISCTGTSSDVGGHNYVSWYQQHPGKAPKVMIYEVSKRPSGVPDRFSGSKSGNTASLTVSGLQAEDEADYYCSSYAGSNKFVFGTGTKVTVLG | 1.78 | 0.000387 | 218000 | 29.9 |  |  |  | 
mAb15162 (antibody, V domains shown) VH: EVQLVETGGGLIQPGGSLRLSCAASEFIVSRNYMSWVRQAPGKGLEWVSLIYSGGSTYYADSVKGRFTISRDNSKNILYLQMNSLRAEDTAVYYCARDRGGISDYWGQGTLVTVSS VL: DIQMTQSPSSLSASVGDRVTITCQASQDINKYLNWFQQKPGKAPKLLIYDASNLETGVPSRFSGSGSGTDFTFTISSLQPEDIATYYCQQYDNLPRTFGQGTKLEIKR | 29.2 | 0.00299 | 103000 | 3.9 |  |  |  | 
mAb14282 (antibody, V domains shown) VH: QVQLVQSGAEVKKPGASVKVSCKASGYIFTDHYMHWVRQAPGQGLEWMGWINPNSGATNYAQNFQGRVTMTRDTSIITVYMELSRLRSDDTAVYYCARDSSPYMIRYTMDVWGQGTTITVSS VL: QSALTQPASVSGSPGQSITISCTGTSSDVGSYNLVSWYQQHPGKAPKLMIYELTKRPSGVSNRFSGSKSGNTASLTISGLQAEDEADYYCSSYRGSVTDVVFGGGTKLTVLG |  |  |  |  | 4.97 | 0.00957 | 1.93e+06 | 1.2
mAb15159 (antibody, V domains shown) VH: EVQLVESGGGLVQPGGSLRLSCAASGITVSSNYMTWVRQAPGKGLEWVSLIYSGGSTFYADSVRGRFTISRDNSKNTLYLQMNSLRAEDTAVYYCARDLVVYGMDVWGQGTTVTVSS VL: DIQLTQSPSSLSASVGDRVTITCRASQGISSYLAWYQQKPGKAPKLLIYAASTLQSGVPSRFSGSGSGTDFTLTISSLQPEDFATYYCQHLNSDPHTFGQGTKLEIKR | 1.21 | 0.000176 | 146000 | 65.6 |  |  |  | 
mAb15170 (antibody, V domains shown) VH: EVQLVESGGGLVQPGGSLRLSCAATGITVSSNYMSWVRQAPGKGLEWVSLIYSGGSTFYADSVKGRFTISRHNSKNTLYLQMSSLRAEDTAVYYCARDLVDFGMDVWGQGTTVTVSS VL: DIQLTQSPSSLSASVGDRVTITCRASQGISNYLAWYQQKPGKAPKLLIYAASTLQSGVPSRFSGSGSGTDFTLTISSLQPEDFGTYYCQQLNSDSPTFGQGTKVEIKR | 0.297 | 8.36e-05 | 283000 | 138 |  |  |  | 
mAb15164 (antibody, V domains shown) VH: EVQLVESGGGLVQPGGSLRLSCAASGFAVSSNYMTWVRQAPGKGLEWVATIYSGDSTYYADSVKGRFTISRHNSKNTLSLQMNSLRADDTAIYYCARLSGVLSGTYNGAFDIWGQGTMVTVSS VL: QSALTQPASVSGSPGQSITISCTGTSSDFGNYNIVSWYQQHPGQAPKVMIYEGNKRPSGVSNRFSGSKSGHTASLTISGLQAEDEADYYCSSYAGSSTWVFGGGTKLTVLG | 6.33 | 0.00179 | 283000 | 6.5 |  |  |  | 
mAb15165 (antibody, V domains shown) VH: EVQLVESGGGLVQPGGSLRLSCAASGFTVSSNYMSWVRQAPGKGLEWVSAIYSGDSTYYADSVKGRFTISKDNSKNTLYLQMNSLRGEDTAVYYCARLGGALQAYDGAFDYWGQGTLATVSS VL: QSALTQPASVSGSPGQSITISCTGTSSDFGSYNLVSWYQQHPGKAPKLMIYEGNKRPSGVSIRFSGSKSGNTASLTISGLQAEDEADYYCSSYAGSSTWVFGGGTKLTVLG | 3.1 | 0.00147 | 475000 | 7.9 |  |  |  | 
mAb15166 (antibody, V domains shown) VH: EVQLVESGGGLVQPGGSLRLSCAASGFTVTSNYMSWVRQAPGKGLEWVSAIYSGESTYYADSVKGRFTISRDSSKNTLYLQMNSLRVEDTAVYYCASIHDYSNYVGGFDPWGQGTLVTVSS VL: QSALTQPASVSGSPGQSITISCTGPSSDFGSYNLVSWYQQHPGKAPKLMIYEGTKRPSGVSNRFSGSKSGNTASLTISGLQAEDEADYYCSSYAGSSTWVFGGGTKLTVLG | 95.3 | 0.0334 | 350000 | 0.3 |  |  |  | 
mAb14234 (antibody, V domains shown) VH: QVQLVESGGGVVQPGRSLRLSCAASGFTFSSYGIHWVRQAPGKGLEWVAIIWYDGSEKYYADSVKGRFTISRDNSKNTLFLQMNSLEAEDTAVYYCARGPDLLTGYYNYFYYGMDVWGQGTTVTVSS VL: QSVLTQPPSVSGAPGQRVTISCTGSSSNIGIGYDVHWYQQLPGTVPKLLIYGNTNRPSGVPDRFSGSKSGTSASLAITGLQAEDEADYYCQSYDSSLSSYVFGTGTKVTVLG | 22.3 | 0.0119 | 534000 | 1 |  |  |  | 
mAb15151 (antibody, V domains shown) VH: QVQLVESGGGVVQPGRSLRLSCAASGFVFNSYGMHWVRQAPGKGLEWVAVLWYEGSKNYYADSVKGRFTISRDNSKNTLYLQMNSLRAEDTAVYYCARHGSGSFFGYYLDYWGQGTLVTVSS VL: DIQMTQSPSSLSASVGDRVTITCRASHNINDFLNWYQQKPGKAPRLLIYAASSLQSGVPSRFSGSGSGTDFTLTISSLQPEDFATYYCQESYTTPPTFGQGTKLEIKR | 24.6 | 0.00442 | 180000 | 2.6 |  |  |  | 
mAb15157 (antibody, V domains shown) VH: EVQLVESGGALVQPGGSLRLSCAASGFPFTIYAMTWVRQAPGKGLEWVSVITGSGDSTYYADSVKGRFTISRDNSKNTLYLQMNSLRAEDTAVYYCVKTGEGFFYYYYGMDVWGQGTTVTVSS VL: QSVLTQPPSVSAAPGQKVTISCSGSSSNIGNSYISWYQQLPGTAPKLLIYVNNKRPSGIPDRFSGSKSGTSATLGITGLQTGDEADYYCGTWDSSLSAGVFGSGTKVTVLG | 11.6 | 0.00399 | 344000 | 2.9 |  |  |  | 
mAb15161 (antibody, V domains shown) VH: EVQLVESGGGLVQPGGSLRLSCAASGFTFSSYEMNWVRQAPGKGLEWVSYISSSGSILYYADSVKGRFTASRDNAKNSLYLQMNSLRAEDTGVYYCARREYQLLRPFEFWGQGTLVTVSS VL: not shown | 3.29 | 0.000866 | 263000 | 13.3 |  |  |  | 
mAb14286 (antibody, V domains shown) VH: QVQLVQSGAEVKKPGASVKVSCKASGYTFTDYFIHWVRQAPGQGLEWMGWINPTSGGTNYAQKFRGRVTMTRDTSISTAYVELSRLRSDDTALYYCARDLPFYSDTKQFDYWGQGTLVTVSS VL: QSALTQPASVSGYPGQSITISCTGTSSDVGGYNYVSWYQQHPGKAPKLMIFDVSNRPSGVSNRFSGSKSGNTASLTFSGLQAEDEADYYCSSYTSSSTLVFGGGTKLTVLG |  |  |  |  | 3.22 | 0.0104 | 3.23e+06 | 1.1
mAb14292 (antibody, V domains shown) VH: EVQLVESGGGLVQPGGSLRLSCVASGFAFSTYEMNWVRQAPGKGLEWVSYISSSGSTIYYADSVKGRLTISRDNVKNSLYLQMNSLRVEDTAIYYCARDAIRNNDILTDPATFDPWGQGTLVTVSS VL: not shown | 60.7 | 0.0218 | 359000 | 0.5 |  |  |  | 
mAb15156 (antibody, V domains shown) VH: QLQLQESGPGLVKSSETLSLTCTVSASITGSTYYWGWIRQPPGKGLEWIGSIYYSGTTYYKASLKSRVTISVDTSKNQFSLKLTSVTVADTAVYYCVSHLLGNYHKYGMDVWGQGTTVTVSS VL: not shown | 14.4 | 0.00535 | 373000 | 2.2 |  |  |  | 
mAb15150 (antibody, V domains shown) VH: EVQLVETGGGLIQPGGSLRLSCAAPGFIVSSNYMSWVRQAPGKGLEWVSLLYPGGSTYYADSVKGRFTISRDNSKNTLYLQMNSLRADDTAVYYCARVLPIVEDHFDYWGQGTLVTVSS VL: DIQLTQSPSFLSASVGDRVTITCRASQGMSSYLAWYQKKPGKAPKLLIYGATILQSGVPSRFSGSGSGTEFTLTISSLQPEDFATYYCQQLNSDPLYMYTFGQGTKLEIKR | 0.158 | 7.84e-05 | 493000 | 147 |  |  |  | 
mAb15158 (antibody, V domains shown) VH: EVQLVESGGGLVQPGGSLRLSCAASGFSFSSNWMSWVRQAPGKGLEWVGNINQDGSEKYYVDSVEGRFTISRDNAKKSLYLQMNSLRAEDTAVYYCARDLGVLWFGDFVDWGQGALVTVSS VL: DIQMTQSPSSLSASVGDRVTITCRASQAISNSLAWYQQKPGKAPKLLLYAASTLESGVPSRFSGSGSGTDYTLTISSLQPEDFATYYCLQYYGSPRTFGQGTKVEIKR | 1.65 | 0.000207 | 126000 | 55.7 |  |  |  | 
mAb15160 (antibody, V domains shown) VH: EVQLVESGGGLVQPGGSLRLSCSASGFTFSRYAMYWVRQAPGKGLEYVSAISSDGGSTYDADSVKGRFTISRANSKNTLYLQMSSLRAEDTAVYYCVKGLRELLYYYYGMDVWGQGTTVTVSS VL: DIQMTQSPSSLSASVGDRVTITCRAGQSISSFLNWYQQKPGKAPKLLIYAASSLQSGVPSRFSGSGSGTDFTLTISSLQPEDFATYYCQQSYITPFTFGPGTKVDIKR | 7.79 | 0.00194 | 250000 | 5.9 |  |  |  | 
